According to article PMC9020777:

Legend:
Assay in all cases: FRET or BRET
Conditions in all cases: remark: other sources report otherwise
[1] = molecular target: mCerulean3-BCL-2 (^CBCL-2) (human), P10415
[2] = molecular target: mCerulean3-BCL-XL (human), Q07817
[3] = molecular target: mCerulean3-BCL-2 (human), P10415
[4] = molecular target: mCerulean3-MCL-1 (human), Q07820
mCerulean3-MCL-1 (human), Q07820, sequence (Q07820 whole entry): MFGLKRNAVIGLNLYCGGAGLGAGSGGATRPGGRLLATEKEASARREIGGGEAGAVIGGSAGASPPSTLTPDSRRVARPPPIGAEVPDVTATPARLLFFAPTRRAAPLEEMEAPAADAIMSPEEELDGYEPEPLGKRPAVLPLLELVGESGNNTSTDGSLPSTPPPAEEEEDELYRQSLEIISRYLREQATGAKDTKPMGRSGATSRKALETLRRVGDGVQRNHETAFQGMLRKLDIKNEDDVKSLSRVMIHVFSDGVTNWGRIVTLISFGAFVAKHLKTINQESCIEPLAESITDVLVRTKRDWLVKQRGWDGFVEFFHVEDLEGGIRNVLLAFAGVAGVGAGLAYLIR

mCerulean3-BCL-2 (human), P10415, sequence (P10415 whole entry): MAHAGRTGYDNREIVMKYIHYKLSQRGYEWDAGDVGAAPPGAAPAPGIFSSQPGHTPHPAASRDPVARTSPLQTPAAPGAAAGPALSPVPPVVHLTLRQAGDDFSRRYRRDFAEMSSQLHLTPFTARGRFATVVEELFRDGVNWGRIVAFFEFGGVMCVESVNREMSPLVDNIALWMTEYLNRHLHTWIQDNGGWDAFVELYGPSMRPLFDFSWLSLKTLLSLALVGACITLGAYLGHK
mCerulean3-BCL-2 (^CBCL-2) (human), P10415, sequence (P10415 whole entry): as above
mCerulean3-BCL-XL (human), Q07817, sequence (Q07817 whole entry): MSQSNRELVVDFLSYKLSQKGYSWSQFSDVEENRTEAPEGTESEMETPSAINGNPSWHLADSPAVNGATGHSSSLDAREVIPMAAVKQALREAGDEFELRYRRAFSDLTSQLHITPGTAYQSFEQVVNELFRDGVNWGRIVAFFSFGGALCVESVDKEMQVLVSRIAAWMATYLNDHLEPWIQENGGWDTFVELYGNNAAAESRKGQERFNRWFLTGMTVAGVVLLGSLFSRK

Binder	Kd [1] [µM]	Kd [2] [µM]	Kd [3] [µM]	Kd [4] [µM]
Venus-NOXA (^VNOXA), Q13794 1-54 (natural protein) MPGKKARKNAQPSPARAPAELEVECATQLRRFGDKLNFRQKLLNLISKLFCSGT	8			
Venus-BAD, Q92934 1-168 (natural protein) MFQIPEFEPSEQEDSSSAERGLGPSPAGDGPSGSGKHHRQAPGLLWDASHQQEQPTSSSHHGGAGAVEIRSRHSSYPAGTEDDEGMGEEPSPFRGRSRSAPPNLWAAQRYGRELRRMSDEFVDSFKKGLPRPKSAGTATQMRQSSSWTRVFQSWWDRNLGRGSSAPSQ		7	4	
Venus-BIK, Q13323 1-160 (natural protein) MSEVRPLSRDILMETLLYEQLLEPPTMEVLGMTDSEEDLDPMEDFDSLECMEGSDALALRLACIGDEMDVSLRAPRLAQLSEVAMHSLGLAFIYDQTEDIRDVLRSFMDGFTTLKENIMRFWRSPNPGSWVSCEQVLLALLLLLALLLPLLSGGLHLLLK			3	6
